Test results from patent US20230250177A1 (INTERVET, published 2023).

T1: canine IL-22 with a C-terminal HIS tag (canine)
T1 construct: Recombinant, made in HEK-293 or CHO cells; coated on the ELISA plate; also called cIL-22-His; canine IL-22-HIS
T1 chain: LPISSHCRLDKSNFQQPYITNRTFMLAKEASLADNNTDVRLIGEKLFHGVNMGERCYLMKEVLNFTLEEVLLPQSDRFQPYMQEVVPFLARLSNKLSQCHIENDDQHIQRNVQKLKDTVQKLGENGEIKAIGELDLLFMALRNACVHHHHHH


How the values were obtained:
[1] = biological target: biotinylated canine IL-31 (canine); assay: ELISA: IL-31RA coated at 10 µg/mL, biotinylated IL-31 titrated 3-fold from 10 µg/mL, HRP-streptavidin
[2] = biological target: T1, canine IL-22 with a C-terminal HIS tag; assay: ELISA: cIL-22-His coated at 1 µg/mL, Fezakinumab titrated from 5 µg/mL, anti-human IgG Fc-HRP
Protocol: The binding of canine IL-22 HIS to the anti-IL-22 antibody Fezakinumab was determined by ELISA as follows: […]

| Molecule | EC50 [1] | binding result [2] |
| --- | --- | --- |
| Canine IL-31RA ECD-10His (extracellular domain of canine IL-31 receptor alpha fused to a HIS tag) | 0.368 µg/mL |  |
| Fezakinumab (human monoclonal anti-IL-22 antibody) (antibody, human IgG1, lambda, V domains shown, Full human heavy and light chains, marked PRIOR ART; made recombinantly in HEK-293 or CHO cells; also called Fezakinumab-mAb; Feza-mAb) VH: QVQLVQSGAEVKKPGASVKVSCKASGYTFTNYYMHWVRQAPGQGLEWVGWINPYTGSAFYAQKFRGRVTMTRDTSISTAYMELSRLRSDDTAVYYCAREPEKFDSDDSDVWGRGTLVTVSS VL: QAVLTQPPSVSGAPGQRVTISCTGSSSNIGAGYGVHWYQQLPGTAPKLLIYGDSNRPSGVPDRFSGSKSGTSASLAITGLQAEDEADYYCQSYDNSLSGYVFGGGTQLTVLG |  | binds |
